# Laboratory results taken from patent US20250136701A1 (GO THERAPEUTICS, published 2025).
# Substitutions are numbered along the chain they refer to.
# T1: cMET-Tn peptide PTKSFISGGSTITGVGKNLN, glycosylated with GalNAc on the serine and threonine residues (O-linked GalNAc on the serine at position 10 and the threonine at position 11; N-terminal biotin in the form described for Biacore and Octet)
# T1 construct: Synthetic 20-residue glycopeptide of cMET; GalNAc sites not given; also called Tn-glycosylated cMET peptide; cMET glycopeptide
# T1 peptide: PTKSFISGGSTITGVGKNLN
# B1: 16E12.1D9.1B11 (antibody, V domains shown)
# VH: QVQLQQSDAELVKPGASVKISCKASGYTFTDHAIHWVKQKPEQGLEWIGYFSPGNDDVRYSEKFKGKATLTADKSSSTAYMQLNSLTSEDSAVYFCKRSLPGDFDYWGQGTTLTVSS
# VL: DVQISQSPSYLAASPGETITINCRASKSINNYLVWYQEKPGKTIKPLIYSGSTLQTGTPSRFSGSGSGTDFSLTISSLEPEDFAMYYCQQHNEYPFTFGAGTKLELK
# notes: Mouse monoclonal antibody from a hybridoma
# B2: 15C4.1D8.1G2 (antibody, V domains shown)
# VH: B1 VH with D56G, V58I, R59K, S61N, D103P, F104M, Y106C, T112S, L113V
# VL: NIVMTQSPKSMSMSVGERVTLSCKASENVGIYVSWYQQKPEQSPKLLIYGPSNRYTGVPDRFTGSGSATDFTLTISSVQAEDLADYHCGQSYSYPFTFGSGTKLEIK
# notes: Mouse monoclonal antibody from a hybridoma (Balb/c mice immunised with the KLH-conjugated Tn-cMET glycopeptide)
# B3: 8H3.2B9.2C7 (antibody, V domains shown)
# VH: B1 VH with K40R, D56G, V58I, R59K, S61N, G66D
# VL: DVQITQSPSYLAASPGETITINCRASKSVSEYLAWYQEKPGKTNKLLIYSGSTLHSGIPSRFSGSGSGTDFTLTITSLAPEDFAMYFCQQHNEYPFTFGAGTKLELK
# notes: Mouse monoclonal antibody from a hybridoma; also called GO-8H3
# B4: 14E9 (antibody, V domains shown)
# VH: QEQLVESGGGLVEPGASLTLTCKASGIDFSSYWICWVRQAPGKGLEWVGCIYTGSGGNTYYATWAKGRFTVSETSSTTVTLRMTSLTAADTATYFCARMGYSAGYIGATYITVGAFNLWGQGTLVTVSS
# VL: DVVMTQTPASVGAAVGGTVTIKCQASQSISNWLAWYQQKPGQPPKLLIYSASYLESGVPSRFSGSGSGTEFTLTISDLECADAATYYCQCTYGSSGDSGSWDFGGGTEVVVKG
# notes: Rabbit monoclonal antibody cloned from B cells of immunised New Zealand White rabbits
# B5: 39A3 (antibody, V domains shown)
# VH: QSLEEYGGDLVKPGASLTLTCTASGLDFSGIYWACWVRQAPGKGLEWIACMDNRVTYATWAKGRFTSSKTSSTTVTLQMTSLTAADTATYFCARGGYGGRGLVFNLWGQGTLVTVSS
# VL: DPVLTQTPPSVSAAVGGTVTIKCQSSQSVYNNNELSWYQQKPGQPPKLLIYDASTLASGVPSRFKGSGSGTQFTLTISGVQCDDAATYYCQGIYYIGDWYSAFGGGTEVVVKG
# notes: Rabbit monoclonal antibody cloned from B cells
# Biological target: T2, MUC1-Tn
# T2 construct: Specificity control in the Biacore and Octet assays
# Test: BLI (Octet), peptide on biosensor, apparent affinity
row,Kd [nM],Binder
1,2000,B1

# Biological target: T1, cMET-Tn peptide PTKSFISGGSTITGVGKNLN, …
# Test: as above
row,Kd [nM],Binder
1,2.83,B2
2,19.2,B1
3,7,B3
4,1.5,B4
5,52,B5

# Biological target: T1, cMET-Tn peptide PTKSFISGGSTITGVGKNLN, …
# Test: SPR (Biacore), antibody immobilised, peptide as analyte
# Description: Antibody affinity assays can be carried out using surface plasmon resonance (e.g., using a Biacore system (Cytiva)). In a surface plasmon resonance assay, one or more antibodies can be immobilized onto a biosensor and presented with an analyte (e.g., the cMET-Tn peptide Biotin-[…] (the amino acid portion of which is SEQ ID NO: 285; bold and underlined residues indicate GalNAc glycosylation sites) or a negative control analyte such as an unglycosylated cMET peptide (Biotin-[…] (the amino acid portion of which is SEQ ID NO:286)). The antibodies are contacted with different concentrations of the analyte, for example concentrations of 2.5 nM, 7.4 nM, 22 nM, 66 nM and 200 nM. Affininty is measured using multi-cycle kinetics in triplicate for each analyte concentration, with 1 min association and 5 min dissociation. […] The affinity is determined by fitting the binding curve to a specific model: kinetic fit (1:1 model) or if applicable heterogenous ligand binding model. The error (>95% confidence) was calculated by how close the generated curve matches the model.
row,Kd [nM],Binder
1,7,B2
2,1.43,B1
3,6.26,B3
